In US20140127683:
Read-outs that look alike come from different tables or passages of the source.

Columns and labels:
[1] = biological target: T1, mYOX1 (Naegleria gruberi) (UniProt D2W6T1); settings: LC-MS, 20 uM mYOX1, Bis-TRIS pH 6.0, Fe(II), alpha-ketoglutarate
T1 sequence: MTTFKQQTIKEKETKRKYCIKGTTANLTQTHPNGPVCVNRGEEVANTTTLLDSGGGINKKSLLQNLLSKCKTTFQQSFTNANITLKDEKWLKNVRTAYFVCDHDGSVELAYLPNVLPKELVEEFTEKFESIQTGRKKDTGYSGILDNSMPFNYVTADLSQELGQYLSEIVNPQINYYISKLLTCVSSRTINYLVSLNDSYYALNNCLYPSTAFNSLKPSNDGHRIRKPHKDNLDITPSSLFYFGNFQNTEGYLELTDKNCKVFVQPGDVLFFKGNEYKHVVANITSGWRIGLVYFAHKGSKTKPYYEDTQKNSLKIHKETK

[2] = biological target: T1, mYOX1 (Naegleria gruberi); settings: LC-MS after NaBH4 reduction and T4-BGT, caC 29.3%, ghmC 67.7%, mC 3.0%

IMR90 genomic DNA
activity (% 5mC oxidized) ([1]; caC 89.1%, hmC 1.7%, fC 8.7%, mC 0.5%): 99.5

pTXB1-M.SssI plasmid
activity (% 5mC oxidized) ([1]; caC 91.2%, hmC 1.8%, fC 5.9%, mC 1.0%): 99

MG1655 genomic DNA
activity (% 5mC oxidized) [2]: 97
